The values that follow come from patent publication US20240239881A1.

A word on the IC50: it is the concentration that gives 50% inhibition. In general, EC50 refers to the concentration that produces a half-maximal response. For orientation: Kd means a measure of binding affinity in units of concentration.

Like-named read-outs stand apart in the source and are kept apart here.

Experiment [1] addresses recombinant biotinylated hAngiopoietin-2 protein (R&D, Cat. No.: BT623B/CF) (human) (UniProt O15123). As to the kind of experiment: blocking ELISA: antibody titrated against biotinylated hAng2 (300 ng/ml final); blocked binding to coated hTie2 protein; Avidin-HRP detection (fit of a flat control curve). In general terms: In an ELISA, binding on a coated surface is turned into a signal by an enzyme label.

For experiment [2] the target is unchanged. The description is as above. This is another data set of the same source.
The target is the same in experiment [3]. As to the kind of experiment: ELISA: biotin Ang2 (R&D BT623B/CF) captured on coated streptavidin (SA), antibody titrated, anti-human IgG-HRP, OD450-OD620, GraphPad fit (fit of a flat control curve).
In experiment [4] the target is Human ang2 protein (Sino Biological, Cat No.: 10691-H08H) (human) (UniProt O15123). Nature of the experiment: ELISA: human ang2 protein (Sino Biological 10691-H08H) coated at 0.25 ug/ml, antibody titrated, HRP-conjugated secondary antibody, OD450-OD620, GraphPad fit (fit of a flat control curve).
For experiment [5], the target named is Cynomolgus monkey Ang2 C-terminal domain (Lys274-Phe495) (cynomolgus monkey). As to the kind of experiment: ForteBio BLI, antibody on AHQ sensor, 100 nM antigen, 1:1 model. (In general: BLI is a label-free optical method that tracks binding on a fibre tip over time.)
Chain of Cynomolgus monkey Ang2 C-terminal domain (Lys274-Phe495) (cynomolgus monkey) (chain, as listed by the source, form in doubt): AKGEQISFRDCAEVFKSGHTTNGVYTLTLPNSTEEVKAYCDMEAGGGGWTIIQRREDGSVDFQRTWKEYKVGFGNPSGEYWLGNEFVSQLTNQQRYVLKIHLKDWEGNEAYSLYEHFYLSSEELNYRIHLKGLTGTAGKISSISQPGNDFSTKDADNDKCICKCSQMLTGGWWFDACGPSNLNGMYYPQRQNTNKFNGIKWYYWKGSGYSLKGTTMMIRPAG

Chain of recombinant biotinylated hAngiopoietin-2 protein (R&D, Cat. No.: BT623B/CF) (human) (O15123 19-496 limits assumed): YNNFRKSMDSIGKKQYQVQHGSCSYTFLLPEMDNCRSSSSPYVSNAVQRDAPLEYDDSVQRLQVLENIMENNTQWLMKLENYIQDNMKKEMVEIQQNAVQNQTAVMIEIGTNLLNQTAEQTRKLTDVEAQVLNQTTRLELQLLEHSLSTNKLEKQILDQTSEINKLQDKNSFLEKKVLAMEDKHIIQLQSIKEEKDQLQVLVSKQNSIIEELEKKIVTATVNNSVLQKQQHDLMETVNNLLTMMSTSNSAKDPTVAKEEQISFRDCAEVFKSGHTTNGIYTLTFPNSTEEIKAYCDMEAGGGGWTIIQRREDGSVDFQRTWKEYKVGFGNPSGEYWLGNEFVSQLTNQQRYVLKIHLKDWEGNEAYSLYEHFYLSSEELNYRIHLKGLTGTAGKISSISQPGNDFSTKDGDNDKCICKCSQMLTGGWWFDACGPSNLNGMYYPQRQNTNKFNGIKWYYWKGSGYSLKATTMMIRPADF
Chain of Human ang2 protein (Sino Biological, Cat No.: 10691-H08H) (human) (O15123 19-496 limits assumed): as above

Take IgG (antibody): the IC50 came to 24.8 nM in experiment [1] and 16.9 nM in experiment [2]. Moreover, the EC50 in experiment [3] stood at 0.00807 nM; in experiment [4] it was 16.8 nM.
With Nesvacumab (Regeneron) (antibody), the Kd in experiment [5] worked out at 1.04 nM.
